The values that follow are results of earlier work, collected in article PMC2924770.

Like-named read-outs stand apart in the source and are kept apart here.

Data set [1] addresses hemoglobin (Homo sapiens) (UniProt P69905).
Data set [2] shares this target. This is another data set of the same source.

In general, Kd refers to the free concentration of one partner at which half of the binding sites on the other are occupied at equilibrium, for simple one-to-one binding. For the substance Kgp (from UniProt B2RLK2), the Kd in data set [1] is 3.92 nM.

As to RgpA (from UniProt P28784), the Kd in data set [2] was 3.72 nM.
